Our source for the Kd values is publication PMC11791991 (2024).

Ends that are not written are not given here.

The term Kd denotes the equilibrium constant for the complex coming apart. A high value points to lower affinity.

The assay concerns the target T1, LZ-Y.
T1 chain: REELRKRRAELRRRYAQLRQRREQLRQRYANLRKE
In words: QRET time-resolved luminescence.

KDTLQAETDQLEDEKSALQTEIANLLKEKEKLEFIL (also: nonadentate Eu(III) chelate label, position not given here) [EuLZ (leucine zipper peptide LZ, Eu-chelate labeled)]: binding was characterised by a dissociation constant (Kd) of 21 nM.
